Results on 2 molecules are retold here after patent publication US20200407442A1 (WUXI BIOLOGICS IRELAND, published 2020).

For assay [1], the target named is T1, full-length human LAG-3 on cells (human, UniProt P18627 23-525).
T1 construct: Expressed on Flp-In-293, CHO or 293F transfectants; also called hPro1.FL; cell surface human LAG-3
T1 sequence: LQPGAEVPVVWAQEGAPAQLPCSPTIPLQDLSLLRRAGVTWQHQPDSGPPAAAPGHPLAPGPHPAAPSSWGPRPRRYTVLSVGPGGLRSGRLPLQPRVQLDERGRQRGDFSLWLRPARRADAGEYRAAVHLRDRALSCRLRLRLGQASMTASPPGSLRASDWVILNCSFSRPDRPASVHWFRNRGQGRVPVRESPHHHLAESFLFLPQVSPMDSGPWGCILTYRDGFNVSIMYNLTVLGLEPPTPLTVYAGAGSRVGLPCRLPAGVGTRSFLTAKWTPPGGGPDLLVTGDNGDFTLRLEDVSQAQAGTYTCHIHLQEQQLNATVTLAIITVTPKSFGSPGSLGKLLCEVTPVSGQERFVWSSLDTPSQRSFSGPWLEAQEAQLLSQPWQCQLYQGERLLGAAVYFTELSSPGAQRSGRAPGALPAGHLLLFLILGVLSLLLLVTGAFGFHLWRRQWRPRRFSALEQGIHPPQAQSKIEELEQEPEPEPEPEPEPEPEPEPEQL
Description: FACS on human LAG-3 transfectant cells. How it is done: Various concentrations of testing antibodies, positive and negative controls were added to human LAG-3 transfectant cells, and then the binding of antibodies onto the surface of the cells was detected by corresponding PE-labeled secondary antibodies.

In assay [2] the target is T2, Variant 2: xPro1.FL-x2 (human; mouse).
T2 construct: Chimeric full-length LAG-3 on transfected 293F cells
T2 chain: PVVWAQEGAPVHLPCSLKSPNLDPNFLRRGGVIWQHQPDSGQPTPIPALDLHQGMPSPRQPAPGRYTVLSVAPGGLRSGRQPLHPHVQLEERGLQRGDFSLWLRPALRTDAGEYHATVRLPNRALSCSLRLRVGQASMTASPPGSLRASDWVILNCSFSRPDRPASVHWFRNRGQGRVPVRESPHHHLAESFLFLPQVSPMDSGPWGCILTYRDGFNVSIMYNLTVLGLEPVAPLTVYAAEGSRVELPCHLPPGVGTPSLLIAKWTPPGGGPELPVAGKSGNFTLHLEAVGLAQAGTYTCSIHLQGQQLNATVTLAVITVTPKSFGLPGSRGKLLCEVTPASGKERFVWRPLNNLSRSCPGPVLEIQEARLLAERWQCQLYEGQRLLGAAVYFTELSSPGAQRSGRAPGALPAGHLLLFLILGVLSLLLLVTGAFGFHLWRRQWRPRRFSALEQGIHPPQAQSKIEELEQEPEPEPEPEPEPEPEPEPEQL
Kind of assay: FACS, 1 ug/mL antibody, transfected 293F cells. How it is done:
(§1) The 10 variants were cloned into pcDNA3 vector and used for 293F cell transfection. Briefly, 293F cells were diluted to a density of 1×10⁶ cells/mL with FreeStyle 293F medium and aliquots of 3 mL/well were added to 24-well plate. Transfections were performed using 293fectin reagent (Life Technologies). For each transfection, 3 μg of DNA were diluted in 150 μOpti-MEM I-reduced serum medium (Life Technologies), and then combined with 6μL 293fectin reagent pre-diluted in 150 μL Opti-MEM I reduced serum medium. The DNA/[…] mixture was allowed to stand at 25° C. for 20 min before being added to the culture. The transfected cells were analyzed by flow cytometry at 48 h post-transfection.
(§2) Binding of antibodies to chimeric LAG-3 variants or full length human/mouse LAG-3 was analyzed by flow cytometry. Briefly, 1 μg/mL antibodies were incubated with chimeric LAG-3-expressing transfected 293F cells for 1 hour at 4° C., and then incubated with 3 μg/mL goat anti-human IgG Fc R-PE (Jackson) for 40 min at 4° C. Cells were analyzed with flow cytometer.
(In general: A flow cytometer gives signals particle by particle.)

The target in assay [3] is T3, Variant 9: xPro1.FL-x9 (human; mouse).
T3 construct: Chimeric full-length LAG-3 on transfected 293F cells
T3 chain: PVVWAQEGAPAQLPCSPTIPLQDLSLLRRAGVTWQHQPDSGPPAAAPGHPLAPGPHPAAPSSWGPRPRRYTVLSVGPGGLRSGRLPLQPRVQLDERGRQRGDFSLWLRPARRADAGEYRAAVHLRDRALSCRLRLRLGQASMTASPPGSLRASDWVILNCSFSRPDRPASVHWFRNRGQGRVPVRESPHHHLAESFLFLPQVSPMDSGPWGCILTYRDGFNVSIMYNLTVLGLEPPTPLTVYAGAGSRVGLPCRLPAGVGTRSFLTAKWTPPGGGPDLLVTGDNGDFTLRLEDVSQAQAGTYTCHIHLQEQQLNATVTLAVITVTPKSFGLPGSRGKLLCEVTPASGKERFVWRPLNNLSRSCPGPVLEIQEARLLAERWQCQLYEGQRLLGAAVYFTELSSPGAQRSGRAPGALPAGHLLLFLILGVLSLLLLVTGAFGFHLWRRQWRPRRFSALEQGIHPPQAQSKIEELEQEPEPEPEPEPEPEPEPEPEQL
Kind of assay: FACS, 1 ug/mL antibody, transfected 293F cells. The protocol: as §1, §2

For assay [4], the target named is T4, human CD4 (human, UniProt P01730 26-390, limits assumed).
T4 construct: also called human CD4 protein
Kind of assay: ELISA on plate-coated human CD4, OD450. How it is done: Cross-reactivity to human CD4 was measured by ELISA. Plates were coated with human CD4 at 1μg/mL overnight at 4° C. After blocking and washing, 1 μg/mL of LAG-3 antibodies were added to the plates and incubated at room temperature for 1 h. The plates were then washed and subsequently incubated with corresponding secondary antibody for 45 min. After washing, TMB substrate was added and the color reaction was stopped by 2 M HCl. The absorbance at 450 nm was read using a microplate reader.

Assay [5] addresses T1, full-length human LAG-3 on cells. Description: FACS on human LAG-3 transfectant cells after incubation of the antibody in human serum at 37 C, PE-labeled goat anti-human IgG, MFI. The protocol:
The lead Abs were incubated in freshly isolated human serum (serum content>95%) at 37° C. On indicated time points, an aliquot of serum treated sample was removed from the incubator and snap frozen in liquid N₂, and then stored at −80° C. until ready for test. The samples were quickly thawed immediately prior to the stability test. Human LAG-3 transfectant cells were incubated with various concentrations of lead antibodies at 4° C. for 1 hour. PE-labeled goat anti-human IgG was used to detect the binding of lead antibodies onto the cells. MFI of the cells was measured by a flow cytometer (BD FACSCanto II) and analyzed by FlowJo.

B1: 1.53.3-uAb-IgG4k (antibody, V domains shown)
VH: QVQLQQWGAGLLKPSETLSLTCGVYGGSFSGYYWSWIRQPPGMGLEWIGEINHRGNTNYNPSLKSRVTISEDTSKNQFSLRLSSVTAADTAVYFCTRGEDYSDYDYYGDFWGQGTLVTVSS
VL: EIVLTQSPATLSLSQGERATLSCRASQSISSYLAWYQQKPGQAPRLLIYAASNRATGIPARFSGSGSGTDFTLTISSLEPEDFAIYYCQQRSNWPLTFGGGTKVEIK
notes: Fully human antibody from OMT rats; IgG4 kappa by its name
In general, EC50 refers to the concentration giving half of the maximal effect. Low values mean greater potency, high ones weaker potency. In general, EC50 (read off the curve) refers to the concentration giving half of the maximal effect. Low readings indicate higher potency in that assay, high ones lower potency in that assay. In assay [1], B1 gave an EC50 of 0.43 nM. Also, in assay [2], the MFI worked out at 45 and the “PE+ %” value was determined as 1.77%. Also, in assay [3], the MFI was found to be 7030 and the “PE+ %” value stood at 97.3%. Further, the binding result in assay [4] was “no binding (tested: 66.7 nM)”. Further, in assay [5], the concentration for a half-maximal effect (EC50 (read off the curve)) is about 3 nM.

B2: 3.40.19-uAb-IgG4L (antibody, V domains shown)
VH: QLQLQESGPGLVKPSETLSLTCTVSGDSISSTSYYWGWIRQPPGKGLEWIGSFYYSGSTYYNPSLKSRVTISVDTSKNQFSLKLNSVTAADTAVYYCARMQLWSYDVDVWGQGTTVTVSS
VL: QSALTQPASVSGSPGQSITISCTGTSSDVGGYDYVAWYQQHPGKVPKLMIYDVSERPSGVSNRFSGSKSGNTASLTISGLQAEDEADYYCSSYTSTTTLVVFGGGTKLSVL
notes: Fully human antibody from OMT rats; IgG4 lambda by its name; also called 3.40.19-uAb-hIgG4L
B2 registered a concentration giving a half-maximal response (EC50) in assay [1] of 0.13 nM. Further, in assay [2], the MFI was 40.6 and the “PE+ %” value was determined as 0.305%. For the same molecule, in assay [3], the MFI was determined as 8320 and the “PE+ %” value turned out to be 87.3%. Moreover, in assay [4], the binding result is listed as “no binding (tested: 66.7 nM)”. Further, the “EC50 (read off the curve)” value in assay [5] was about 0.8 nM.
